T1: Human AXL-Fc (R&D Systems, #154-AL) (human, UniProt P30530 26-451)
T1 construct: Bought reagent; also called human AXL-Fc fusion protein; human AXL-Fc protein; not shown: Fc part of the bought fusion protein
T1 sequence: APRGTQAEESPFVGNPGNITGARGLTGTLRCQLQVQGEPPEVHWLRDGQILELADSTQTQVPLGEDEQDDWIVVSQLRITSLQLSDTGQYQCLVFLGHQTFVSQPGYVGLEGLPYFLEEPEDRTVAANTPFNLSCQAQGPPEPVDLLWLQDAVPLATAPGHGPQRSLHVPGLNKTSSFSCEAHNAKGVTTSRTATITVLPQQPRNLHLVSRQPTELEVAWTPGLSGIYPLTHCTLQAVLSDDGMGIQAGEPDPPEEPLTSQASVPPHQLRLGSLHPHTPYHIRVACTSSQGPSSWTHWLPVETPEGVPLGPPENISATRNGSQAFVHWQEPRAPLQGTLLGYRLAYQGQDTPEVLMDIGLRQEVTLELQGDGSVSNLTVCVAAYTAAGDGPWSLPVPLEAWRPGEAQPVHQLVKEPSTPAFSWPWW

B1: h#11B7-T14 (antibody, human IgG1, kappa, V domains shown)
VH: QVQLQESGPGLVKPSETLSLTCTVSGYSITSNYWGWIRQPPGKGLEWMGYITYSGSTSYNPSLKSRITISRDTSKNQFSLKLSSVTAADTAVYYCAITTFYYWGQGTLVTVSS
VL: DIQMTQSPSSLSASVGDRVTITCRASQDIGNYLRWYQQKPGKAPKLMISGATNLAAGVPSRFSGSGSGSDYTLTISSLQPEDFATYYCLQSKESPWTFGQGTKVEIKR
notes: Humanized IgG1/kappa
B2: h#11B7-T18 (antibody, human IgG1, kappa)
heavy: not shown
light: DIQMTQSPSSLSASVGDRVTITCRASQDIGNYLRWFQQKPGKAPKLLISGATNLAAGVPSRFSGSGSGSDFTLTISSLQPEDFATYYCLQSKESPWTFGQGTKVEIKRTVAAPSVFIFPPSDEQLKSGTASVVCLLNNFYPREAKVQWKVDNALQSGNSQESVTEQDSKDSTYSLSSTLTLSKADYEKHKVYACEVTHQGLSSPVTKSFNRGEC
notes: Humanized IgG1/kappa
B3: h#11B7-T16 (antibody, human IgG1, kappa, V domains shown)
VH: B1 VH
VL: B1 VL with Y36F, Y71F
notes: Humanized IgG1/kappa
B4: h#11B7-T15 (antibody, human IgG1, kappa)
heavy: not shown
light: B2 light with F71Y
notes: Humanized IgG1/kappa
B5: h#11B7-T17 (antibody, human IgG1, kappa, V domains shown)
VH: B1 VH
VL: B1 VL with M47L
notes: Humanized IgG1/kappa
B6: h#11B7-T7 (antibody, human IgG1, kappa, V domains shown)
VH: B1 VH with M48I, I67V, T68S
VL: B1 VL
notes: Humanized IgG1/kappa
B7: h#11B7-T13 (antibody, human IgG1, kappa, V domains shown)
VH: B1 VH with M48I, I67V, T68S
VL: B1 VL with M47L, Y71F
notes: Humanized IgG1/kappa
B8: h#11B7-T9 (antibody, human IgG1, kappa, V domains shown)
VH: B1 VH with M48I, I67V, T68S
VL: B1 VL with Y36F, Y71F
notes: Humanized IgG1/kappa
B9: h#11B7-T10 (antibody, human IgG1, kappa, V domains shown)
VH: B1 VH with M48I, I67V, T68S
VL: B1 VL with M47L
notes: Humanized IgG1/kappa
B10: h#11B7-T12 (antibody, human IgG1, kappa, V domains shown)
VH: B1 VH with M48I, I67V, T68S
VL: B1 VL with Y71F
notes: Humanized IgG1/kappa
B11: h#11B7-T11 (antibody, human IgG1, kappa, V domains shown)
VH: B1 VH with M48I, I67V, T68S
VL: B1 VL with Y36F, M47L, Y71F
notes: Humanized IgG1/kappa
B12: h#11B7-T8 (antibody, human IgG1, kappa, V domains shown)
VH: B1 VH with M48I, I67V, T68S
VL: B1 VL with Y36F, M47L
notes: Humanized IgG1/kappa

Substitutions are numbered along the chain they refer to.

Experimental findings from patent US20120117670A1 (U3 PHARMA, published 2012) are described below.

The first assay addresses T1, Human AXL-Fc (R&D Systems, #154-AL). In words: ELISA on plate-adsorbed human AXL-Fc (1 ug/ml), 5-fold antibody dilution series, AP-conjugated goat anti-human IgG, fluorescent substrate (Example 13). A general note: In an ELISA, binding on a coated surface is turned into a signal by an enzyme label.
Regarding B1, the half-maximal effective concentration (EC50 (read off the curve)) is around 0.02 µg/mL.

Regarding B2, the 50% effective concentration (EC50 (read off the curve)) is around 0.02 µg/mL.

For B3, the 50% effective concentration (EC50 (read off the curve)) is around 0.02 µg/mL.

Consider B4, for which the concentration giving a half-maximal response (EC50 (read off the curve)) was around 0.02 µg/mL.

B5: the concentration giving a half-maximal response (EC50 (read off the curve)) is around 0.02 µg/mL.

A further assay shares this target. The assay is described as above. The source holds these as a separate data set.
Turning to B6, the “EC50 (read off the curve)” value was around 0.03 µg/mL.

With B7, the “EC50 (read off the curve)” value is around 0.03 µg/mL.

Take B8: the “EC50 (read off the curve)” value is around 0.02 µg/mL.

Take B9: the “EC50 (read off the curve)” value is around 0.02 µg/mL.

With B10, the “EC50 (read off the curve)” value is around 0.04 µg/mL.

For B11, the “EC50 (read off the curve)” value was around 0.02 µg/mL.

B12: the “EC50 (read off the curve)” value is around 0.02 µg/mL.

As usually defined, the EC50 (read off the curve) is the concentration giving half of the maximal effect. A higher EC50 (read off the curve) goes with a need for much substance.
